Laboratory results from publication PMC13185157 (ACS Synthetic Biology, 2026).

Molecular target: T1, GFP (Aequorea victoria GFP, engineered …)
T1 construct: green fluorescent protein expressed from pYTK001; also called green fluorescent protein; source: E. coli DH5α, constitutive expression from pYTK001, in lysate
Assay: flow cytometry on cells; about 1 x 10^6 yeast cells displaying the α-GFP Nb in 20 mM HEPES pH 7.5, 150 mM NaCl, 0.1% BSA, 5 mM maltose; GFP from a bacterial cell lysate (20–30 μL); 15 min at 4 °C; GFP fluorescence, percent of positive cells
Details: partners not purified

T1 sequence (P42212 other isoform, or with tags, fused parts or gaps): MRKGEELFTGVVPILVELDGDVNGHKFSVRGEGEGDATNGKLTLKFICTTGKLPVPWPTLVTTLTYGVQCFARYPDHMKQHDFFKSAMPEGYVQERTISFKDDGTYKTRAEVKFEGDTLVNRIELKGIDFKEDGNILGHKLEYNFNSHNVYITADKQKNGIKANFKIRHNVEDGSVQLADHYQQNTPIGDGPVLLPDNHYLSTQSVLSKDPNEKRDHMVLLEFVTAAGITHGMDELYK

Row | Binder | percent of cells labelled with GFP
1 | α-GFP Nb displayed as C-terminal fusion to HA-tagged Aga2 (VHH, anti-GFP nanobody, as in m2; Held on the cell by coexpressed Aga1; also called anti-GFP Nanobody; not shown: HA, internal (after amino acid 18 of Aga2p, after the signal peptide), kept; Aga2p anchor (YGL032C), N-terminal, kept) VHH: QVQLVESGGALVQPGGSLRLSCAASGFPVNRYSMRWYRQAPGKEREWVAGMSSAGDRSSYEDSVKGRFTISRDDARNTVYLQMNSLKPEDTAVYYCNVNVGFEYWGQGTQVTVSS | > 60%
2 | α-GFP Nb displayed as C-terminal fusion to untagged Aga2 (VHH, anti-GFP nanobody, as in m2; also called anti-GFP Nanobody; not shown: Aga2p anchor (YGL032C), N-terminal, kept) VHH: QVQLVESGGALVQPGGSLRLSCAASGFPVNRYSMRWYRQAPGKEREWVAGMSSAGDRSSYEDSVKGRFTISRDDARNTVYLQMNSLKPEDTAVYYCNVNVGFEYWGQGTQVTVSS | > 60%
3 | α-GFP Nb displayed as C-terminal fusion to MYC-tagged Aga2 (VHH, anti-GFP nanobody, as in m2; also called anti-GFP Nanobody; not shown: Aga2p anchor (YGL032C), N-terminal, kept) VHH: QVQLVESGGALVQPGGSLRLSCAASGFPVNRYSMRWYRQAPGKEREWVAGMSSAGDRSSYEDSVKGRFTISRDDARNTVYLQMNSLKPEDTAVYYCNVNVGFEYWGQGTQVTVSS | > 60%
4 | α-GFP Nb displayed as C-terminal fusion to 2xFLAG-tagged Aga2 (VHH, anti-GFP nanobody, as in m2; Held on the cell by coexpressed Aga1; also called anti-GFP Nanobody; not shown: 2xFLAG, internal (after amino acid 18 of Aga2p, after the signal peptide), kept; Aga2p anchor (YGL032C), N-terminal, kept) VHH: QVQLVESGGALVQPGGSLRLSCAASGFPVNRYSMRWYRQAPGKEREWVAGMSSAGDRSSYEDSVKGRFTISRDDARNTVYLQMNSLKPEDTAVYYCNVNVGFEYWGQGTQVTVSS | > 60%

Results, then the binder that gave them:

Row | percent of cells labelled with GFP | Binder
5 | > 80% | α-GFP Nb displayed as N-terminal fusion to HA-tagged Aga1ΔN181 (VHH, anti-GFP nanobody; Plasmid details in File S1; also called anti-GFP Nanobody; not shown: HA (of the anchor part), internal (between nanobody and anchor), kept; Aga1ΔN181 anchor (Aga1p YNR044W amino acids 182–544), C-terminal, kept) VHH: QVQLVESGGALVQPGGSLRLSCAASGFPVNRYSMRWYRQAPGKEREWVAGMSSAGDRSSYEDSVKGRFTISRDDARNTVYLQMNSLKPEDTAVYYCNVNVGFEYWGQGTQVTVSS
6 | > 80% | α-GFP Nb displayed as N-terminal fusion to MYC-tagged Aga1ΔN181 (VHH, anti-GFP nanobody, as in m2; also called anti-GFP Nanobody; not shown: MYC, internal (between nanobody and anchor), kept; Aga1ΔN181 anchor (Aga1p YNR044W amino acids 182–544), C-terminal, kept) VHH: QVQLVESGGALVQPGGSLRLSCAASGFPVNRYSMRWYRQAPGKEREWVAGMSSAGDRSSYEDSVKGRFTISRDDARNTVYLQMNSLKPEDTAVYYCNVNVGFEYWGQGTQVTVSS
7 | > 80% | α-GFP Nb displayed as N-terminal fusion to 2xFLAG-tagged Aga1ΔN181 (VHH, anti-GFP nanobody, as in m2; also called anti-GFP Nanobody; not shown: 2xFLAG, internal (between nanobody and anchor), kept; Aga1ΔN181 anchor (Aga1p YNR044W amino acids 182–544), C-terminal, kept) VHH: QVQLVESGGALVQPGGSLRLSCAASGFPVNRYSMRWYRQAPGKEREWVAGMSSAGDRSSYEDSVKGRFTISRDDARNTVYLQMNSLKPEDTAVYYCNVNVGFEYWGQGTQVTVSS
